Experimental data taken from paper PMC11765882, “A High-Resolution Crystallographic Study of Cytochrome c6: Structural Basis for Electron Transfer in Cyanobacterial Photosynthesis” (International Journal of Molecular Sciences, 2025).

B1: Cytochrome c6 from Synechococcus elongatus sp. PCC 7942 (natural protein, Synechococcus elongatus PCC 7942)
chain: ADLAHGGQVFSANCAACHLGGRNVVNPAKTLQKADLDQYGMASIEAITTQVTNGKGAMPAFGSKLSADDIADVASYVLDQSEKGWQG
modifications: heme covalently linked to two cysteine residues via thioether bonds (CXXCH motif); iron axially coordinated by methionine and histidine
notes: cloned into pET22b with an N-terminal pelB signal peptide; Used reduced (3 mM beta-mercaptoethanol) and oxidised (40-fold molar excess of potassium ferricyanide); The printed residue numbers (Asp2, His5, Ala16) and the MALDI-TOF mass (9714.504 with heme) fit the mature protein without the native signal peptide
B2: Cytochrome c6 from Synechocystis sp. PCC 6803 (natural protein)
chain: ADLAHGKAIFAGNCAACHNGGLNAINPSKTLKMADLEANGKNSVAAIVAQITNGNGAMPGFKGRISDSDMEDVAAYVLDQAEKGW
modifications: heme covalently linked to two cysteine residues via thioether bonds (CXXCH motif); iron axially coordinated by methionine and histidine
notes: Cytochrome c6, Synechocystis sp; cloned into pET22b with an N-terminal pelB signal peptide; Crystallised only in the reduced form (3 mM beta-mercaptoethanol); The printed residue numbers and the MALDI-TOF mass (9449.297 with heme) fit the mature protein without the native signal peptide

Biological target: the molecule itself
Assay: native gel or EMSA; blue native PAGE (4-13%) of the purified protein; dimer and monomer

| Protein | stoichiometry N |
| --- | --- |
| B1 | 2 |
| B2 | 2 |
